# Laboratory results published in the supplement of paper PMC9732359.
# ± gives the uncertainty stated by the source.
# Test: protein stability index of a GFP-peptide fusion (yeast GPS) (PSI 1-4); higher = more stable; sorted into four equal gates, so the index is relative within each strain
# Settings: pdr5∆
# Procedure, shortened: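 Tiled yeast protein peptides of 17 residues were each joined downstream of GFP, on plasmids that also express Cherry. The pooled library was maintained in yeast, and mid-log cultures in leucine-free medium were sorted into four equal gates on the GFP/Cherry ratio. Plasmids from every gate were amplified by PCR and sequenced on Illumina, with barcodes linking reads to strains. The protein stability index of a peptide is its gate-number-weighted read frequency summed over the gates.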
row,Sequence,protein stability index
1,TDDVRLAPELNQAIWKR [RPL31A],3.3 ± 0.077
2,TDIKDTLTKISMLFKTS [MCD1],2.88 ± 0.27
3,TDLEKKHLWDQKSLAAL [RPC17],2.98 ± 0.062

# Same assay, conditions: san1∆
row,Sequence,protein stability index
1,SLLTLVGSVTYQVDEDV [YJL039C/NUP192],2.66 ± 0.098
2,SLNLGIGIVEIAHENEQ [SRB8],2.52 ± 0.11
3,SLNPALQEKISTELNNK [SWI1],3.29 ± 0.069
4,SLPEFFTNRIPSKTPEV [SWI3],2.65 ± 0.062
5,SLPLIVFLRNRLKYALN [RPS4A],1.48 ± 0.12
6,SLYAYCHSKLRGQQVEN [GRR1],2.54 ± 0.1
7,SLYKVSFLEKPKFAIQD [YMR129W/POM152],2.77 ± 0.071
8,SMHLLKDWTDTFVYILE [SRB8],2.88 ± 0.047
9,SMNNDFQQQQQQQQQQQ [PGD1],2.54 ± 0.11
10,SNDEKQKAQDVDVSMQD [RPN13],3.22 ± 0.041
11,SNDIIDKPYLLRIVTHL [YDL116W/NUP84],3.09 ± 0.15
12,SNIDIRVRVTGGGHVSQ [RPS16A],2.78 ± 0.13
13,SNLSQNVVPYHRNTSDY [SWI1],2.82 ± 0.1
14,SNNDEDDKDCTIKISTN [RGR1],2.89 ± 0.054
15,SNRLLMDVDQFDFLDDG [YJR042W/NUP85],1.69 ± 0.27
16,SNTSTLKNMLYVLSTAV [BRR2],1.17 ± 0.18
17,SNVAAIFKGIGGNFKDL [GAL11],2.58 ± 0.079
18,SPEQIDASPDSLEALID [YCS4],2.94 ± 0.044
19,SPERFATLGIDPPKGIL [RPT1],2.42 ± 0.078
20,SPFRPLEKTSRILNFFD [YMR153W/NUP53],2.72 ± 0.087
21,SPFSITFSVYHESTSRT [YMR129W/POM152],2.76 ± 0.056
22,SPHGLINLNVDDDILII [SRB4],3.11 ± 0.054
23,SPLQSSKSKQSFTQGEL [YMR129W/POM152],2.73 ± 0.055
24,SPNRLRVRTDDSVLLNR [YML031W/NDC1],2.99 ± 0.14
25,SPRVEKRSFSSTLKSFF [YOR098C/NUP1],2.26 ± 0.078

row,Sequence,protein stability index
1,SPTYSPTSPAYSPTSPS [RPO21],3 ± 0.032
2,SQEMVPRYFSEAINGFK [SIR3],3.14 ± 0.058
3,SQISKAEMEADSLASEL [SMC4],3.27 ± 0.071
4,SQLGGNKTVNEAAKPSL [YJL041W/NSP1],2.32 ± 0.17
5,SQQLLEILVTELTAQGY [RPN2],1.93 ± 0.13
6,SQTPKVEKTEKPKKPKG [RPS30A],2.93 ± 0.051
7,SQTTTNDSKEESTTEAT [YLR335W/NUP2],2.97 ± 0.21
8,SQVEDFTRIFLPIYDSL [SIR3],2.49 ± 0.059
9,SQVYAIRQAIAKGLVAY [RPS16A],2.27 ± 0.1
10,SRIVEIFALCIYNSTDS [YML103C/NUP188],1.52 ± 0.11
11,SRKRNEEEDAKNPLFSY [RPL31A],2.58 ± 0.074
12,SRLCTPIPVQGEIEIKP [RPN13],1.7 ± 0.26
13,SRNNTLNVTPSKRPQLG [SIR4],2.8 ± 0.096
14,SRRFKNGFQTGSAKATS [RPL37B],3.37 ± 0.096
15,SRSSSKNVNIEDITEPK [ESC2],2.67 ± 0.086
16,SRTATWLKNKFAEENIT [BRR2],2.23 ± 0.064
17,SRTGPVFDLCWNSLMYA [RRP43],2.6 ± 0.048
18,SSAADITMESVHEWEVS [PRP8],3.31 ± 0.048
19,SSDAFEKLKVNMEKEKD [YIL149C/MLP2],3.33 ± 0.057
20,SSDDLQNCWSLINDSYI [SSN8],1.53 ± 0.11
21,SSDGAYTEQFQHYKNNS [SSN2],3.02 ± 0.066
22,SSEALEAARICANKYMT [RPL10],1.36 ± 0.19
23,SSEIDRENVKSKDEPVS [SIR4],2.92 ± 0.082
24,SSEIKIYYNELQNKPDA [SIR4],2.46 ± 0.29
25,SSFYINHASMDVYNREL [BRR2],3.04 ± 0.076

row,Sequence,protein stability index
1,SSGAGTVKLYLPEILNV [ECM29],2.02 ± 0.075
2,SSGVLSSNIAGTNPLSS [SSN2],2.83 ± 0.19
3,SSIHAIGSIKEDYLGAI [RPB7],2.71 ± 0.067
4,SSIHWNNWFSLPGDMLA [SIN4],1.71 ± 0.11
5,SSKLQLTKKYSFKIFVD [RRP42],1.76 ± 0.086
6,SSKNETSKPVFSFGAAT [YLR335W/NUP2],2.88 ± 0.063
7,SSLIPHCITSITLALAD [MTR3],1.27 ± 0.17
8,SSLPPGEILLPDIADIP [SNF5],3.19 ± 0.076
9,SSQKDGNDFKFNYQGDE [REC8],3.43 ± 0.051
10,SSRFKHRQEIFKDSPMD [GAL11],3.03 ± 0.059
11,SSRPNVNTTRRFQYSDD [YMR129W/POM152],2.4 ± 0.16
12,SSSAQQTKSNGTAGGNT [YJL041W/NSP1],3.36 ± 0.078
13,SSSGNTWSLILNECLKT [YML031W/NDC1],1.48 ± 0.13
14,SSTGGGLFGNKPALGSL [YGR119C/NUP57],3.4 ± 0.048
15,SSTTGMSYVVRILSTLD [RPT3],2.49 ± 0.053
16,SSYMGKHWTEKSLHEMN [PRP28],3.07 ± 0.19
17,STAFQNTPLSLPTRGTL [COR1],1.97 ± 0.05
18,STDNEAITISNSIDINY [SMC1],2.67 ± 0.045
19,STGGKAPRKQLASKAAR [HHT1],3.03 ± 0.1
20,STKKDTVQLTFLIDVLK [YCG1],2.47 ± 0.078
21,STSFKNPRRLEIKDGRS [YMR153W/NUP53],2.83 ± 0.085
22,STSIQYHGISKNDNIKK [POP6],2.89 ± 0.043
23,STTASGTTATGTGLFGQ [YGR119C/NUP57],3.27 ± 0.068
24,STVQTPITASMAAALPN [PGD1],1.37 ± 0.11
25,SVGVIINKMVGNRYLEK [RPL21A],2.43 ± 0.2

row,Sequence,protein stability index
1,SVIVSQFCAFDSSSNTY [SIN4],2.51 ± 0.12
2,SVKDYRPAEETEAQAEP [RPS3],3.11 ± 0.041
3,SVLRDTLVAQNLKQANN [SMC4],2.48 ± 0.052
4,SVNIAFAISMGYLFKVS [ECM29],2.83 ± 0.093
5,SVNPSNKPIKRMLSSIL [SWP82],2.93 ± 0.045
6,SVREINLYMLVTTCVYL [SSN8],2.33 ± 0.065
7,SVRLQVTKILPHLIIQN [IRR1],1.72 ± 0.094
8,SVRRSGALDVEGLCIVA [RRP45],3 ± 0.11
9,SYAGISTDKLVQCHGSF [SIR2],2.78 ± 0.13
10,SYESLKKRKIHNGREGS [MCD1],1.69 ± 0.062
11,SYEYYNIKHKHTSIRET [SMC2],1.67 ± 0.11
12,SYKMIQLDAYGEKKVGS [SWP82],3.35 ± 0.075
13,TAAANTEKLSNGFSFTK [YOR098C/NUP1],2.56 ± 0.065
14,TAAIDSVVSQIEKGSTF [FAS1],3.12 ± 0.072
15,TAGVGSTPNFGGNSNKS [SIN4],3.39 ± 0.078
16,TAKPAFSFGAKPAEKNN [YJL041W/NSP1],3.19 ± 0.11
17,TALKQYEKELMGDELTR [RPN6],3.42 ± 0.077
18,TAPSSERRVLLSAPLSK [RPL26B],2.66 ± 0.062
19,TATGAASKSGKLTQKLV [CYT1],2.69 ± 0.11
20,TATIINNESSDDMDIDE [PCI8],3.02 ± 0.095
21,TDAYLDQYLWYEADQRK [PRP8],3.02 ± 0.18
22,TDDQGRVIDDNNRRRSR [SIR3],3.39 ± 0.17
23,TDDVRLAPELNQAIWKR [RPL31A],3.18 ± 0.079
24,TDIKDTLTKISMLFKTS [MCD1],2.37 ± 0.18
